Source: paper PMC6628566

Molecular target: CX3CR1 (UniProt P49238)
UniProt P49238, sequence (P49238 whole entry): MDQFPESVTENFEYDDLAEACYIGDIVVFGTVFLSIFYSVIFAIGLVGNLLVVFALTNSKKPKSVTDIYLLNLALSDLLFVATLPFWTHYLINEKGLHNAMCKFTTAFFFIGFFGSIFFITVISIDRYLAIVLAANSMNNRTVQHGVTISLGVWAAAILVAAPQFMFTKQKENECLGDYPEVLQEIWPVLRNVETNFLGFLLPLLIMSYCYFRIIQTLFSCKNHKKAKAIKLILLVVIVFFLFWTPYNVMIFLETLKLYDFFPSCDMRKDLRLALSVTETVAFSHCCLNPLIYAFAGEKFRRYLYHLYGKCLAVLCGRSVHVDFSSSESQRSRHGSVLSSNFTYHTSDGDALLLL

chemokine domain-only peptide of fractalkine (ckFKN) (domain or fragment)
fold decrease in receptor binding affinity against sFKN: 10 fold
